# Experimental data as given in US20110256144A1 (TORAY INDUSTRIES, published 2011).
# T1: human CAPRIN-1 protein on human cancer cells (human, UniProt Q14444 2-709)
# T1 sequence (looked up): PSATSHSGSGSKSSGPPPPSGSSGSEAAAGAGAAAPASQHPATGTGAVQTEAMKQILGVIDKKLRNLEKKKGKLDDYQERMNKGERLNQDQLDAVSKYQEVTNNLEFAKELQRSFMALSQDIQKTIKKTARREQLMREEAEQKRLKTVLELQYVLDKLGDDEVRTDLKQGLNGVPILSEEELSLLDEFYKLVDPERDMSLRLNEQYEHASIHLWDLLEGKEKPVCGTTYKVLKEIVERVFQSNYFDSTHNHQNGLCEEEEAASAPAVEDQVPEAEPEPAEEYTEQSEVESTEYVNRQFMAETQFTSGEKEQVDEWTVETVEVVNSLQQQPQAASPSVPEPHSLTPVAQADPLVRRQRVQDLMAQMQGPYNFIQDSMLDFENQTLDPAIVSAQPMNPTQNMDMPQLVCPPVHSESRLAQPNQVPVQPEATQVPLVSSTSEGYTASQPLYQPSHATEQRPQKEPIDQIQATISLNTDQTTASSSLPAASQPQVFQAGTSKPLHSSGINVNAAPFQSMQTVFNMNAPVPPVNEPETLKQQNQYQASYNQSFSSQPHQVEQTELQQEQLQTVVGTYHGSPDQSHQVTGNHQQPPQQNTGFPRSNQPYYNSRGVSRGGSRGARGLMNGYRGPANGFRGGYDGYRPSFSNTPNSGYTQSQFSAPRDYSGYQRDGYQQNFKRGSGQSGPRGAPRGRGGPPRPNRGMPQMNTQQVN
# B1: monoclonal antibody #1 against CAPRIN-1 (antibody, V domains shown)
# VH: EVQLHQFGAELVKPGASVKISCKASGYTFTDYNMDWVKQSHGKSLEWIGDINPNYDSTSYNQKFKGKATLTVDKSSSTAYMELRSLTSEDTAVYYCARSRSYDYEGFAYWGQGTLVTVSA
# VL: DIQMTQSPASLSASVGETVTITCRASGNIHNYLAWYQQKQGKSPQLLVYNAKTLADGVPSRFSGSGSGTQYSLKINSLQPEDFGSYYCQHFWSTLTFGAGTKLELKR
# notes: also called the #1 monoclonal antibody to CAPRIN-1; antibody (a)
# B2: monoclonal antibody #3 against CAPRIN-1 (antibody, V domains shown)
# VH: B1 VH
# VL: DIQLTQSPASLSASVGETVTITCRASGNIHNYLAWYQQKQGKSPQLLVYNAKTLADGVPSRFSGSGSGTQYSLKINSLQPEDFGSYYCQHFWSTLTFGGGTKLEIK
# notes: Mouse monoclonal antibody from a hybridoma; also called the #3 monoclonal antibody to CAPRIN-1; antibody (c)
# B3: monoclonal antibody #4 against CAPRIN-1 (antibody, V domains shown)
# VH: B1 VH
# VL: SGDRVSLSCRASQSISNYLHWYQQKSHESPRLLIKYASQSISGIPSRFSGSGSGTDFTLSINSVETEDFGMYFCQQSNSWPYTFGAGTKLEIKQ
# notes: Mouse monoclonal antibody from a hybridoma; also called the #4 monoclonal antibody to CAPRIN-1; antibody (d)
# B4: monoclonal antibody #7 against CAPRIN-1 (antibody, V domains shown)
# VH: LQESGAELARPGASVKLSCKASGYTFTSYWMQWVKQRPGQGLEWIGAIYPGDGDTRYTQKFKGKATLTADKSSSTAYMQLSSLASEDSAVYYCARGEYGNYFAYWGQGTTVTVSS
# VL: TSDASLGERVTITCKASQDINSYLSWFQQKPGKSPKTLIYRANRLVDGVPSRFSGSGSGQDYSLTISSLEYEDMGIYYCLQYDEFPLTFGGGTKLEIKQ
# notes: Mouse monoclonal antibody from a hybridoma; also called the #7 monoclonal antibody to CAPRIN-1; antibody (g)
# Target: T1, human CAPRIN-1 protein on human cancer …
# Experiment: cell-based or functional assay
"ADCC activity (chromium 51 release, mouse lymphocytes), MDA-MB-157 cells [%]","CDC activity (chromium 51 release, rabbit serum), MDA-MB-231V cells [%]",Binder
≥ 20,≥ 30,B1
≥ 20,≥ 30,B2
≥ 20,≥ 30,B3
≥ 20,≥ 30,B4

# Target: T1, human CAPRIN-1 protein on human cancer …
# Experiment: flow cytometry, hybridoma supernatant on human breast cancer, glioma, kidney, gastric, colon, lung cancer and leukemia cell lines; increase in MFI over control
# Experimental: Each cell line (10⁶ cells) was centrifuged in a 1.5-ml microcentrifugal tube. The hybridoma supernatants (100 μl each) containing monoclonal antibodies #1 to #10 against CAPRIN-1 prepared in Example 4 reacting to cancer cell surfaces were separately added thereto and then left to stand on ice for 1 hour. After washing with PBS, each resultant was suspended in an FITC-labeled goat anti-mouse IgG antibody (Invitrogen Corporation) diluted 500-fold with PBS containing 0.1% FBS and then left to stand on ice for 1 hour. After washing with PBS, fluorescence intensity was measured using FACSCalibur (Becton, Dickinson and Company). Meanwhile, a procedure similar to the above was performed using, as a control, the control antibody prepared in (5) above instead of the hybridoma supernatants containing monoclonal antibodies #1 to […] against CAPRIN-1, so that a control was prepared. […] Based on the above, it was confirmed that the CAPRIN-1 protein was expressed on the cell surfaces of the above human cancer cell lines. In addition, the rate of increase in fluorescence intensity is represented by the rate of increase in mean fluorescence intensity (MFI value) in cells. It was calculated by the following equation.
row,increase in fluorescence intensity over control [%],Binder
1,≥ 30,B1
2,≥ 30,B2
3,≥ 30,B3
4,≥ 30,B4
